Reference: publication PMC9110474

Columns and labels:
[1] = molecular target: TOM complex (translocase of the mitochondrial outer membrane), human, endogenous core complex (human (endogenous in HeLa or U2OS)) (UniProt O96008); assay: native gel or EMSA; competition: mitochondria preincubated on ice for 10 min with 20 µg pSu9-DHFR-His, 1 mM methotrexate and 1 mM NADPH, depolarized, then import of radiolabeled PINK1; BN-PAGE, 700 kDa species quantified (clogger and TOM complex)
[2] = molecular target: TOM complex (translocase of the mitochondrial outer membrane), human, endogenous core complex (human (endogenous in HeLa or U2OS)) (UniProt O96008)

PINK1 association with the TOM complex left with pSu9-DHFR, % of control [1]: < 40% | integration of radiolabeled TOM40 into the MOM of mitochondria preincubated with pSu9-DHFR, % of untreated mitochondria [2]: 60%
Substance: pSu9-DHFR-His
